The target in the assay is actin of the acto-HMM complexes in Example II. As to the kind of experiment: stopped-flow; effects of ADP on ATP-mediated dissociation of acto-HMM.

Consider “HMM from pig β cardiac myosin heavy chain (from UniProt P79293 1-1282) (enzyme)”, for which the maximum rate constant for dissociation of acto-HMM (ATP-mediated, with ADP) is 35 s⁻¹.

With “HMM from rat β cardiac myosin heavy chain (hypothyroid rat) (from UniProt P02564 1-1282) (enzyme)”, the maximum rate constant for dissociation of acto-HMM (ATP-mediated, with ADP) is 140 s⁻¹.

In turn, “rat α cardiac myosin HMM (chymotryptic heavy meromyosin of native hyperthyroid rat ventricular α-myosin) (from UniProt P02563 1-1285) (enzyme)” yielded a maximum rate constant for dissociation of acto-HMM (ATP-mediated, with ADP) of 600 s⁻¹.
